Assay results: patent publication US20250283886A1

Target: polypeptides with a terminal leucine residue
Assay: single-molecule dwell time analysis, distribution of mean pulse durations, Leu; filtered 0.00s≤dur≤20.00s and magnitude above baseline > 15.0

B1: S. elongatus ClpS2 (protein)
chain: MSPQPDESVLSILGVPRPCVKKRSRNDAFVLTVLTCSLQAIAAPATAPGTTTTRVRQPYPHFRVIVLDDDVNTFQHVAECLLKYIPGMTGDRAWDLTNQVHYEGAATVWSGPQEQAELYHEQLRREGLTMAPLEAA
B1 was tested, and the mean pulse duration (value at the dashed line) was 0.35 s.
